{
  "source": "paper PMC10786891",
  "about": "“Massively parallel profiling of RNA-targeting CRISPR-Cas13d”",
  "binders": {"B1": {"name": "target 2 MT 5'PFS UAA 3'PFS AUU (mixed)", "RNA 1": "CACCCGUGCAAAAUUGCAGGGGUCUAAAACCUUCUCCAAAUUGUUUCAUCCU", "RNA 2": "GGGAAUGGAUCCACAUCUACGAAUUCUAAAGGAUGAAACAAUUUGGAGAAGAUUAGAUCGGAAGAGCACACGU"}, "B2": {"name": "target 2 MT 5'PFS AAU 3'PFS CUG (mixed)", "RNA 1": "CACCCGUGCAAAAUUGCAGGGGUCUAAAACCUUCUCCAAAUUGUUUCAUCCU", "RNA 2": "GGGAAUGGAUCCACAUCUACGAAUUCAAUAGGAUGAAACAAUUUGGAGAAGCUGAGAUCGGAAGAGCACACGU"}, "B3": {"name": "target 2 MT 5'PFS AAU 3'PFS CUC (mixed)", "RNA 1": "CACCCGUGCAAAAUUGCAGGGGUCUAAAACCUUCUCCAAAUUGUUUCAUCCU", "RNA 2": "GGGAAUGGAUCCACAUCUACGAAUUCAAUAGGAUGAAACAAUUUGGAGAAGCUCAGAUCGGAAGAGCACACGU"}, "B4": {"name": "target 2 MT 5'PFS AAC 3'PFS CAG (mixed)", "RNA 1": "CACCCGUGCAAAAUUGCAGGGGUCUAAAACCUUCUCCAAAUUGUUUCAUCCU", "RNA 2": "GGGAAUGGAUCCACAUCUACGAAUUCAACAGGAUGAAACAAUUUGGAGAAGCAGAGAUCGGAAGAGCACACGU"}, "B5": {"name": "target 2 MT 5'PFS AAU 3'PFS CCG (mixed)", "RNA 1": "CACCCGUGCAAAAUUGCAGGGGUCUAAAACCUUCUCCAAAUUGUUUCAUCCU", "RNA 2": "GGGAAUGGAUCCACAUCUACGAAUUCAAUAGGAUGAAACAAUUUGGAGAAGCCGAGAUCGGAAGAGCACACGU"}, "B6": {"name": "target 2 MT 5'PFS GAU 3'PFS AUA (mixed)", "RNA 1": "CACCCGUGCAAAAUUGCAGGGGUCUAAAACCUUCUCCAAAUUGUUUCAUCCU", "RNA 2": "GGGAAUGGAUCCACAUCUACGAAUUCGAUAGGAUGAAACAAUUUGGAGAAGAUAAGAUCGGAAGAGCACACGU"}, "B7": {"name": "target 2 MT 5'PFS UUU 3'PFS CCU (mixed)", "RNA 1": "CACCCGUGCAAAAUUGCAGGGGUCUAAAACCUUCUCCAAAUUGUUUCAUCCU", "RNA 2": "GGGAAUGGAUCCACAUCUACGAAUUCUUUAGGAUGAAACAAUUUGGAGAAGCCUAGAUCGGAAGAGCACACGU"}, "B8": {"name": "target 2 MT 5'PFS GGC 3'PFS AGU (mixed)", "RNA 1": "CACCCGUGCAAAAUUGCAGGGGUCUAAAACCUUCUCCAAAUUGUUUCAUCCU", "RNA 2": "GGGAAUGGAUCCACAUCUACGAAUUCGGCAGGAUGAAACAAUUUGGAGAAGAGUAGAUCGGAAGAGCACACGU"}, "B9": {"name": "target 2 MT 5'PFS AAC 3'PFS CAA (mixed)", "RNA 1": "CACCCGUGCAAAAUUGCAGGGGUCUAAAACCUUCUCCAAAUUGUUUCAUCCU", "RNA 2": "GGGAAUGGAUCCACAUCUACGAAUUCAACAGGAUGAAACAAUUUGGAGAAGCAAAGAUCGGAAGAGCACACGU"}, "B10": {"name": "target 2 MT 5'PFS GCU 3'PFS AAC (mixed)", "RNA 1": "CACCCGUGCAAAAUUGCAGGGGUCUAAAACCUUCUCCAAAUUGUUUCAUCCU", "RNA 2": "GGGAAUGGAUCCACAUCUACGAAUUCGCUAGGAUGAAACAAUUUGGAGAAGAACAGAUCGGAAGAGCACACGU"}, "B11": {"name": "target 2 MT 5'PFS UUU 3'PFS CCA (mixed)", "RNA 1": "CACCCGUGCAAAAUUGCAGGGGUCUAAAACCUUCUCCAAAUUGUUUCAUCCU", "RNA 2": "GGGAAUGGAUCCACAUCUACGAAUUCUUUAGGAUGAAACAAUUUGGAGAAGCCAAGAUCGGAAGAGCACACGU"}, "B12": {"name": "target 2 MT 5'PFS AGC 3'PFS CUA (mixed)", "RNA 1": "CACCCGUGCAAAAUUGCAGGGGUCUAAAACCUUCUCCAAAUUGUUUCAUCCU", "RNA 2": "GGGAAUGGAUCCACAUCUACGAAUUCAGCAGGAUGAAACAAUUUGGAGAAGCUAAGAUCGGAAGAGCACACGU"}, "B13": {"name": "target 2 MT 5'PFS AGC 3'PFS CUG (mixed)", "RNA 1": "CACCCGUGCAAAAUUGCAGGGGUCUAAAACCUUCUCCAAAUUGUUUCAUCCU", "RNA 2": "GGGAAUGGAUCCACAUCUACGAAUUCAGCAGGAUGAAACAAUUUGGAGAAGCUGAGAUCGGAAGAGCACACGU"}, "B14": {"name": "target 2 MT 5'PFS AAG 3'PFS UCC (mixed)", "RNA 1": "CACCCGUGCAAAAUUGCAGGGGUCUAAAACCUUCUCCAAAUUGUUUCAUCCU", "RNA 2": "GGGAAUGGAUCCACAUCUACGAAUUCAAGAGGAUGAAACAAUUUGGAGAAGUCCAGAUCGGAAGAGCACACGU"}, "B15": {"name": "target 2 MT 5'PFS GCU 3'PFS AAA (mixed)", "RNA 1": "CACCCGUGCAAAAUUGCAGGGGUCUAAAACCUUCUCCAAAUUGUUUCAUCCU", "RNA 2": "GGGAAUGGAUCCACAUCUACGAAUUCGCUAGGAUGAAACAAUUUGGAGAAGAAAAGAUCGGAAGAGCACACGU"}, "B16": {"name": "target 2 MT 5'PFS GAU 3'PFS AUG (mixed)", "RNA 1": "CACCCGUGCAAAAUUGCAGGGGUCUAAAACCUUCUCCAAAUUGUUUCAUCCU", "RNA 2": "GGGAAUGGAUCCACAUCUACGAAUUCGAUAGGAUGAAACAAUUUGGAGAAGAUGAGAUCGGAAGAGCACACGU"}, "B17": {"name": "target 2 MT 5'PFS AGC 3'PFS CUC (mixed)", "RNA 1": "CACCCGUGCAAAAUUGCAGGGGUCUAAAACCUUCUCCAAAUUGUUUCAUCCU", "RNA 2": "GGGAAUGGAUCCACAUCUACGAAUUCAGCAGGAUGAAACAAUUUGGAGAAGCUCAGAUCGGAAGAGCACACGU"}, "B18": {"name": "target 2 MT 5'PFS AAU 3'PFS CUU (mixed)", "RNA 1": "CACCCGUGCAAAAUUGCAGGGGUCUAAAACCUUCUCCAAAUUGUUUCAUCCU", "RNA 2": "GGGAAUGGAUCCACAUCUACGAAUUCAAUAGGAUGAAACAAUUUGGAGAAGCUUAGAUCGGAAGAGCACACGU"}, "B19": {"name": "target 2 MT 5'PFS AGC 3'PFS CUU (mixed)", "RNA 1": "CACCCGUGCAAAAUUGCAGGGGUCUAAAACCUUCUCCAAAUUGUUUCAUCCU", "RNA 2": "GGGAAUGGAUCCACAUCUACGAAUUCAGCAGGAUGAAACAAUUUGGAGAAGCUUAGAUCGGAAGAGCACACGU"}, "B20": {"name": "target 2 MT 5'PFS AAC 3'PFS CAC (mixed)", "RNA 1": "CACCCGUGCAAAAUUGCAGGGGUCUAAAACCUUCUCCAAAUUGUUUCAUCCU", "RNA 2": "GGGAAUGGAUCCACAUCUACGAAUUCAACAGGAUGAAACAAUUUGGAGAAGCACAGAUCGGAAGAGCACACGU"}, "B21": {"name": "target 2 MT 5'PFS UAC 3'PFS CUG (mixed)", "RNA 1": "CACCCGUGCAAAAUUGCAGGGGUCUAAAACCUUCUCCAAAUUGUUUCAUCCU", "RNA 2": "GGGAAUGGAUCCACAUCUACGAAUUCUACAGGAUGAAACAAUUUGGAGAAGCUGAGAUCGGAAGAGCACACGU"}, "B22": {"name": "target 2 MT 5'PFS GAU 3'PFS AUC (mixed)", "RNA 1": "CACCCGUGCAAAAUUGCAGGGGUCUAAAACCUUCUCCAAAUUGUUUCAUCCU", "RNA 2": "GGGAAUGGAUCCACAUCUACGAAUUCGAUAGGAUGAAACAAUUUGGAGAAGAUCAGAUCGGAAGAGCACACGU"}, "B23": {"name": "target 1 U3G,U8A (mixed)", "RNA 1": "CACCCGUGCAAAAAUGCAGGGGUCUAAAACUGAGCGGAUAACCUCUCUAUGG", "RNA 2": "GGGAAUGGAUCCACAUCUACGAAUUCGUACCAUAGAGAGGUUAACCGCGCACCGAGAUCGGAAGAGCACACGU"}, "B24": {"name": "target 1 insC 3' of 20,insG 3' of 6 (mixed)", "RNA 1": "CACCCGUGCAAAAAUGCAGGGGUCUAAAACUGAGCGGAUAACCUCUCUAUGG", "RNA 2": "GGGAAUGGAUCCACAUCUACGAAUUCGUACCACUAGAGAGGUUAUCCGGCUCACCGAGAUCGGAAGAGCACACGU"}},
  "data": [
    {"target": "T1, EsCas13d, nuclease-dead (Eubacterium siraeum, UniProt B0MS50, R295A;H300A;R849A;H854A)", "T1 sequence": "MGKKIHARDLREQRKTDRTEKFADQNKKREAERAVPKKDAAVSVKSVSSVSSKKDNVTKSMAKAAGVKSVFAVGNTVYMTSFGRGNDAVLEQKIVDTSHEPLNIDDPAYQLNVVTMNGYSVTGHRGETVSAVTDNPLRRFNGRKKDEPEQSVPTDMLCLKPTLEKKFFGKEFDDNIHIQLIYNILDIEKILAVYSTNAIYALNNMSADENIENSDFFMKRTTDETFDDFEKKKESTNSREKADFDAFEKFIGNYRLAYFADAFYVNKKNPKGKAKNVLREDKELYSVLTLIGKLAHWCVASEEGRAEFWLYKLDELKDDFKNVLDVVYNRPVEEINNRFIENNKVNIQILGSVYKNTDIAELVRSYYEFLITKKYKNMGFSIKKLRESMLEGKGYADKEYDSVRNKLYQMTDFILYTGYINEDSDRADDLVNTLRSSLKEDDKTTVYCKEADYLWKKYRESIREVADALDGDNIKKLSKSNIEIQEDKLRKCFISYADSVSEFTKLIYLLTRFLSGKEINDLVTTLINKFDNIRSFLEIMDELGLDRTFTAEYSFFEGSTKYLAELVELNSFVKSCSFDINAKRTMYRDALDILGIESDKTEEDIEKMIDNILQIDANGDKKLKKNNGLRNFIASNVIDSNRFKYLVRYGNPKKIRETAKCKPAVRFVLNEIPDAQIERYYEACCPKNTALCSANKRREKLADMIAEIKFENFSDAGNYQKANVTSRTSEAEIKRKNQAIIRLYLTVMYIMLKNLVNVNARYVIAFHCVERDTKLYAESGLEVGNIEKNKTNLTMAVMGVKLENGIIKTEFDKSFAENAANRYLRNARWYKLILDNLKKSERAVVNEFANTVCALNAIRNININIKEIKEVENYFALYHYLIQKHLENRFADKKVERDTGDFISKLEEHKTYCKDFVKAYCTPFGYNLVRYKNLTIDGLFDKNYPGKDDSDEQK", "test": "crRNA (strand 1, pre-loaded); Mg2+; 40 mM Tris-HCl pH 7.5, 150 mM NaCl, 6 mM MgCl2, 1 mM DTT, 0.1% Tween-20, 0.2 mg/ml BSA; 25 C; 10 min per concentration, then washed", "conditions": "tags: His6-TwinStrep-SUMO cleaved; N-terminal SNAP kept (SNAP-Surface 488); label: 3' end held by stalled T7 RNA polymerase", "units": {"Kd": "nM"}, "values": [
      {"binder": "B1", "Kd": "3.9 ± 0.6"},
      {"binder": "B2", "Kd": "4.2 ± 0.5"},
      {"binder": "B3", "Kd": "7.3 ± 0.8"},
      {"binder": "B4", "Kd": "3.6 ± 0.6"},
      {"binder": "B5", "Kd": "5.9 ± 0.7"},
      {"binder": "B6", "Kd": "14 ± 6"},
      {"binder": "B7", "Kd": "52 ± 15"},
      {"binder": "B8", "Kd": "11.5 ± 0.8"},
      {"binder": "B9", "Kd": "~7"},
      {"binder": "B10", "Kd": "10.1 ± 1.9"},
      {"binder": "B11", "Kd": "18.1 ± 2.5"},
      {"binder": "B12", "Kd": "8.6 ± 1.5"},
      {"binder": "B13", "Kd": "16.5 ± 3.4"},
      {"binder": "B14", "Kd": "16.3 ± 2.5"},
      {"binder": "B15", "Kd": "5.9 ± 1"},
      {"binder": "B16", "Kd": "11.8 ± 1.1"},
      {"binder": "B17", "Kd": "11.5 ± 2.8"},
      {"binder": "B18", "Kd": "9.4 ± 2"},
      {"binder": "B19", "Kd": "11.7 ± 1.5"},
      {"binder": "B20", "Kd": "6.2 ± 2"},
      {"binder": "B21", "Kd": "10.4 ± 1.7"},
      {"binder": "B22", "Kd": "10.5 ± 1.8"},
      {"binder": "B23", "Kd": "12 ± 0.6"},
      {"binder": "B24", "Kd": "7.5 ± 0.4"}
    ]}
  ]
}
